Assay: yeast display, Sf9 membrane polyspecificity reagent, FACS + sequencing; frameworks hold sequencing errors
Summary of the method: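 A nanobody's polyreactivity label depends on the gate it was sorted from. Yeast display cells were stained with 10% biotinylated, detergent-solubilized Sf9 membrane reagent for 1 hour at 4 °C, enriched on streptavidin microbeads and sorted by FACS. The low and high (top ~1%) gates were set on anti-HA fluorescence for expression and streptavidin fluorescence for reagent binding.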

| Sequence | polyreactivity (PSR sort gate) |
| --- | --- |
| QVQLVESGGGLVQAGGSLRLSCAASGSTFPVYAMGWYRQAPGKERELVAAISLIGGSTYYADSVKGRFTISRDNAKNTVYLQMNSLNPEDTAVYYCNNAVISSPPAIDVLEMDYWGQGTQVTVSS | low polyreactivity |
| QVQLVESGGGLVQAGGSLRLSCAASGSTFPVYAMGWYRQAPGKERELVAAISRAGSTNYADSVKGRFTISRHNAKNTVYLEMNSLKPEDTAVYYCAARGYLWAGEWYVRRDYWGQGTQVTVSS | high polyreactivity |
| QVQLVESGGGLVQAGGSLRLSCAASGSTFPWYAMGWYRQAPGKERELVASITSGTTTNYADSVKGRFTISRDNAKNTVYLQMNSLKPEDTAVYYCAASWVYPYDYWGQGTQVTVSS | low polyreactivity |
| QVQLVESGGGLVQAGGSLRLSCAASGSTFPYNARGWYRQAPGKERELVAAINSNGGSTYYADSVKGRFTISRDNAKNTVYLQMNSLKPEDTAVYYCAAGFYYRPFYGSSHSYGYWGQGTQVTVSS | low polyreactivity |
| QVQLVESGGGLVQAGGSLRLSCAASGSTFPYNVMGWYRQAPGKERELVASISWSGGRQYYADSVKGRFTISRDNAKNTVYLQMNSLKPEDTAVYYCAADAAFPADYWGQGTQVTVSS | low polyreactivity |
| QVQLVESGGGLVQAGGSLRLSCAASGSTFPYYAMGWYRQAPGKERELVAAITSSGGSTYYADSVKGRFTISRDNAKNTVYLQMNSLKPEDTAVYYCAKGYGPYRQMNYWGQGTQVTVSS | low polyreactivity |
| QVQLVESGGGLVQAGGSLRLSCAASGSTFPYYAMGWYRQAPGKERELVAAITSSTGRTYYADSVKGRFTISRDNAKNSVYLQMNSLKPEDSAVYYCNAEVYSDPYNDHDYWGQGTQVTVSS | low polyreactivity |
| QVQLVESGGGLVQAGGSLRLSCAASGSTFPYYAMGWYRQAPGKERELVARISYRGGRTYYADSVKGRFTISRDNAKNTVYLQMNSLKPEDTAVYYCAADRWVYYHSTRYDYWGQGTQVTVSS | high polyreactivity |
| QVQLVESGGGLVQAGGSLRLSCAASGSTFPYYAMGWYRQATGKEREFVASITYGGGSTYYADSVKGRFTISRDNAKNTVYLQMNSLKPEDTAVYYCAAGYIAGRVWYDYWGQGTQVTVSS | low polyreactivity |
| QVQLVESGGGLVQAGGSLRLSCAASGSTFPYYDMGWYRQAPGKERELVAAISWSGDSTYYADSVKGRFTISRDNAKNTVYLQMKSLKAEDTAVYYCNADGKAGGDYDYWGQGTQVTVSS | low polyreactivity |
| QVQLVESGGGLVQAGGSLRLSCAASGSTFPYYPMGWYRQAPGKERELVAAISRGDSTNYADSVKGRFTISRDNAKNTVYLQMNCLKPEDTAVYYCAARLQYRRTSVKYYFWGQGTQVTVSS | high polyreactivity |
| QVQLVESGGGLVQAGGSLRLSCAASGSTFPYYTMGWYRQAPGKEREMVAAITGSGGSTYYADSVKGRFTISRDNAKNTVYLQMNSLKPEDTAVYYCAKRRWDQYFKNRMYFWGQGTQVTVSS | high polyreactivity |
| QVQLVESGGGLVQAGGSLRLSCAASGSTFQANAMAWYRPAPGKERELVAAISSRGGITYYADSVKARFTISRDNAKNTVYLQMNSLKPEDTAVYYCNALPRSTYRQGLGVRLYYWGQGTQVTVSS | high polyreactivity |
| QVQLVESGGGLVQAGGSLRLSCAASGSTFQAYAMGWYRQAPGKERELVAAISVSDGITYYADSVKGRFTISRDNAKNTVYLQMNSLKPEDTAVNYCAAEISLSRSDRIESYDYWGQGTQVTVSS | low polyreactivity |
| QVQLVESGGGLVQAGGSLRLSCAASGSTFQAYVMGWDRQAPGKERELVAAISRSGGSTYYADSVKGRFTISRDNAKNTVYLQLHSLKPEDTAVYYCAVDASRYGSTGHYGFYYWGQGTQVTVSS | low polyreactivity |
| QVQLVESGGGLVQAGGSLRLSCAASGSTFQDYAMGWYRQAPGKERELVAAITYSGGSTYYADSVKGRFTISRDNAKNTVYLQLNSLKPDVTAVYYCAAKDTTVFYYDDDYWGQGTQVTVSS | low polyreactivity |
| QVQLVESGGGLVQAGGSLRLSCAASGSTFQEYAMGWYRQAPGKERELVASIRWSGGRTYYADSVKGRFTISRDNAKNTVYLQMNSLKPEDTAVYYCNKVWVYAVTPSSWYKYGSWGQGTQVTVSS | low polyreactivity |
| QVQLVESGGGLVQAGGSLRLSCAASGSTFQFYAMGWYRQAPGKERELVAVITSGDDTNYADSVKGRFTISRDNAKNTVYLQMNSLKPEDTAVYYCDVDYILVYTRVRSYWFDYWGQGTQVTVSS | low polyreactivity |
| QVQLVESGGGLVQAGGSLRLSCAASGSTFQHYAMGWYRQAPGKERELVAAITNTGGSTYYADSVKGRFTISRDNAKNTVYLQMNSLKPEDTAVYYCATVGRRYGYPGYYWGQGTQVTVSS | low polyreactivity |
| QVQLVESGGGLVQAGGSLRLSCAASGSTFQHYAMGWYRQAPGKERELVAAITNTGGSTYYADSVKGRFTISRDNAMNTVYLLMNSLKPEDTAVYYCATVGRRYGYPGYYWGQGTQVTVSS | low polyreactivity |
| QVQLVESGGGLVQAGGSLRLSCAASGSTFQINAMGWYRQAHGKERALVAAIDGGGDTYYADSVKGRFTISRDNAKKTDYLQMNSLKPEDTAVYYCAAERRIYYQDFNYCGQGTQVTVSS | low polyreactivity |
| QVQLVESGGGLVQAGGSLRLSCAASGSTFQKYVMGWYRQAPGKERELVAAISINGVRTYYADSVKGRFTISRDYAKNTVYLQMNSLKPEDTAVFFCNNDTLIRRGSGRGYWGQGTQVNVSS | high polyreactivity |
| QVQLVESGGGLVQAGGSLRLSCAASGSTFQLYAMGWYRQAPGKERELVATISWRGGSTYYADSVKGRFTISRDNAKNTVYLQMNSLKPEDTAVYYCAADFYLRGRYYSRYGSWGQGTQVTVSS | high polyreactivity |
| QVQLVESGGGLVQAGGSLRLSCAASGSTFQPYAMGWYRQAPGKEREFVAAIRWGTGSTYYADSVKGRFTISRDNAKNTVYLQMNILKPEDTAVYYCAKRRVSASREYYWGQGTQVTVSS | high polyreactivity |
| QVQLVESGGGLVQAGGSLRLSCAASGSTFQPYTMGWYRQAPGKERELVAAISSSGRTNYADSVKGRFTISRDNAKNTVYLQMNSLKPEDTAVYYCNRDYPYIWHKGARYWHENDYWGQGTQVTVSS | low polyreactivity |
| QVQLVESGGGLVQAGGSLRLSCAASGSTFQRYAMGGYRQAPGKERQLVAAISSGGSTYYADSVKGRFTISRDNAKNTVYLQINSLKPEDTAVYYCAARIYVVWSSRVYWMYYWGQGTQVTVSS | high polyreactivity |
| QVQLVESGGGLVQAGGSLRLSCAASGSTFQRYAMGWYRQAPGKERELVAAITWSNGSTYYADSVKGRFTISRDNAKNTVYLQMNSLKPEDTAVYYCDAEVHLGGDYWGQGTQVTVSS | low polyreactivity |
| QVQLVESGGGLVQAGGSLRLSCAASGSTFQRYVIGWYRQAPGKERELVAAITRTGASTYYADSVKGRFTISRDNAKNTVYLQMNSLKPEDTAVYYCAARYRLGSYTYDYSGQGTQVTVSS | high polyreactivity |
| QVQLVESGGGLVQAGGSLRLSCAASGSTFQTNAMGWYRQAPGKERELVAGIRWRGGSTYYADSVKGRFTISRDNAKNTVYLQMNSLKPEDSAVYYCAAYYLWHHYLFDYWGQGTQVTVSS | high polyreactivity |
| QVQLVESGGGLVQAGGSLRLSCAASGSTFQTYAMGWYRQAPGKERELVASINWRSGSTYYADSVKGRFTISRDNAKNTVYLQMNSLKPEDTAVYSCAAELDFSPGYYYLYDYWGQGTQVTVSS | low polyreactivity |
